Data published in PMC11760725.

What was measured:
[1] = molecular target: Cbf1 (Saccharomyces cerevisiae) (UniProt P17106); assay: ensemble FRET
[2] = molecular target: Cbf1 (Saccharomyces cerevisiae) (UniProt P17106); assay: EMSA
[3] = molecular target: T1, Reb1 (Saccharomyces cerevisiae) (UniProt P21538); assay: ensemble FRET
T1 sequence: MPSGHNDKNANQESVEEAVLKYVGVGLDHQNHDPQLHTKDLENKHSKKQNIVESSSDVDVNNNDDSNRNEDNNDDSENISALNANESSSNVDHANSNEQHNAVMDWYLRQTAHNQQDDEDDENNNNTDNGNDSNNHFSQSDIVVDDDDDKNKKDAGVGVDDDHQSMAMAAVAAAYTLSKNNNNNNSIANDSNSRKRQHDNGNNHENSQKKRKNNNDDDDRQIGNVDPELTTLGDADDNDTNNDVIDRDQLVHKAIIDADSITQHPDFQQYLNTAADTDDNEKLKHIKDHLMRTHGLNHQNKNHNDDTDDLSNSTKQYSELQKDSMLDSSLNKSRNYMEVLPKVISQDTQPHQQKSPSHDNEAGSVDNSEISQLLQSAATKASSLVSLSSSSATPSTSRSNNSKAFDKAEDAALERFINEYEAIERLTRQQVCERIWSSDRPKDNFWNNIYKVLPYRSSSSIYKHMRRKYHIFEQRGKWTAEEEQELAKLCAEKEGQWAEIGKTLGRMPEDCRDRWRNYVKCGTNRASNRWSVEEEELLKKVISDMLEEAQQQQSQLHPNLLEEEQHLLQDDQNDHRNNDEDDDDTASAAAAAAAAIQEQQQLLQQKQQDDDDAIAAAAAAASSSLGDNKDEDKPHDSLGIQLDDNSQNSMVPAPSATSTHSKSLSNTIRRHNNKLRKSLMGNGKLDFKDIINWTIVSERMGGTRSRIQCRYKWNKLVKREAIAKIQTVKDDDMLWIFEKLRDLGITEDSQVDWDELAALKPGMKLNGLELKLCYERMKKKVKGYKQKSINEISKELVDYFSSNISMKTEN

Sequence of UniProt P17106 (P17106 whole entry): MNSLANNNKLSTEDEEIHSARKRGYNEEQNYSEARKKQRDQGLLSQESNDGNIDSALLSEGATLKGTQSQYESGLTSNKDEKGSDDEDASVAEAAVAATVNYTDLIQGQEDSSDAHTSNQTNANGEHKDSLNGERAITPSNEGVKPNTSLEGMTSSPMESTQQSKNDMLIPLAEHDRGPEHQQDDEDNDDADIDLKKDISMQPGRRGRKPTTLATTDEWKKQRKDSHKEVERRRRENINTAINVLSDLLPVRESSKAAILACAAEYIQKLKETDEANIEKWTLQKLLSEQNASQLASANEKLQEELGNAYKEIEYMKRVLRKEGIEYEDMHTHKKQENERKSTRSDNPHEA

## GCTTTGAGGTCACGTGACCAACAGAAAGATGGAGGAGACCAATCAGTCAGTGAATCAGATGCTGATGAAGGCTGGGAAGATATTCCTGTCTACGTTAAAGCCTTTGCAGAGTTTGAATCAAAGAAAAGATTACAAAAAATTCGCCGACAGGAAGAAATAAAAAAGAGGACAGCTTTGGTTTGAAGCAAATATATATTATTGAAAAGC (double strand) [YNN1 Cbf1p8 nucleosome]
[1]
  K half: 1.5 nM
[2]
  K half: 0.8 nM

## GCTTTGACCGGGTAACACGAACAGAAAGATGGAGGAGACCAATCAGTCAGTGAATCAGATGCTGATGAAGGCTGGGAAGATATTCCTGTCTACGTTAAAGCCTTTGCAGAGTTTGAATCAAAGAAAAGATTACAAAAAATTCGCCGACAGGAAGAAATAAAAAAGAGGACAGCTTTGGTTTGAAGCAAATATATATTATTGAAAAGC (double strand) [YNN1 Reb1p8 Cy3-proximal 207 bp nucleosome]
[3]
  K half: 1.5 nM

## 601 Reb1p8 Cy3-proximal 207 bp nucleosome
[3]
  K half: 0.75 nM
